Laboratory results from patent US20220409739A1 (OXFORD UNIVERSITY INNOVATION, published 2022).

B1: GAPDH-cMyc protein (enzyme)
chain: not shown
notes: also called GAPDH-cMye; not shown: cMyc tag

Tests used:
Test in all cases: co-immunoprecipitation on cMyc beads from HEK293T cell lysate, western blot
GAPDH-cMyc protein = molecular target: B1
[1] = molecular target: Insulin triphosphate receptor 3 (IPR3) (UniProt Q14573 1-2671)
Argonuate 2 (Ago2) = Argonuate 2 (Ago2) (UniProt Q9UKV8 1-859)
Argonuate 2 (Ago2), sequence (Q9UKV8 whole entry): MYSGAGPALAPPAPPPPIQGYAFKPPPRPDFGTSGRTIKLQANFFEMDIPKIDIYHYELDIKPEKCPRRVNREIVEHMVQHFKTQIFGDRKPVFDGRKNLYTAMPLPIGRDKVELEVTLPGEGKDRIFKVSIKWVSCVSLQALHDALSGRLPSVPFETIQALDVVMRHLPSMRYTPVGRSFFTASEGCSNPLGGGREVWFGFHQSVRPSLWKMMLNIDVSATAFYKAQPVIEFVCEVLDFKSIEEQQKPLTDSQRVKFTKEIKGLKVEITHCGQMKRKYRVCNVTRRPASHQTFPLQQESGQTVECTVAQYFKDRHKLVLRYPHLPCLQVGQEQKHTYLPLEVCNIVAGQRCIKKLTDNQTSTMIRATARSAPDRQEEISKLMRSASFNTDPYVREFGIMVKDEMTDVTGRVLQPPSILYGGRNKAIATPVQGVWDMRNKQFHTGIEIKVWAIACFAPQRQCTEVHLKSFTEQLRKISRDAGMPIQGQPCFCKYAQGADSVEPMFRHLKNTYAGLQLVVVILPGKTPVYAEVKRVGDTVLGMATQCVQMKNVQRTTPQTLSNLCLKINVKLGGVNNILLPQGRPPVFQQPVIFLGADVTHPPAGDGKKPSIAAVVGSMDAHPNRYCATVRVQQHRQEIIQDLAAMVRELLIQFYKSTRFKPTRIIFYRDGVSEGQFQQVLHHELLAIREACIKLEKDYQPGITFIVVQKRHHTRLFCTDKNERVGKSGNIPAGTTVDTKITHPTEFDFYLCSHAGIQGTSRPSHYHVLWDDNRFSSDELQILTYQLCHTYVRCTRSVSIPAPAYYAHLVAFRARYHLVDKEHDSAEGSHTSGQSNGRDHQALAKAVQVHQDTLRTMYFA

Insulin triphosphate receptor 3 (IPR3), sequence (Q14573 whole entry): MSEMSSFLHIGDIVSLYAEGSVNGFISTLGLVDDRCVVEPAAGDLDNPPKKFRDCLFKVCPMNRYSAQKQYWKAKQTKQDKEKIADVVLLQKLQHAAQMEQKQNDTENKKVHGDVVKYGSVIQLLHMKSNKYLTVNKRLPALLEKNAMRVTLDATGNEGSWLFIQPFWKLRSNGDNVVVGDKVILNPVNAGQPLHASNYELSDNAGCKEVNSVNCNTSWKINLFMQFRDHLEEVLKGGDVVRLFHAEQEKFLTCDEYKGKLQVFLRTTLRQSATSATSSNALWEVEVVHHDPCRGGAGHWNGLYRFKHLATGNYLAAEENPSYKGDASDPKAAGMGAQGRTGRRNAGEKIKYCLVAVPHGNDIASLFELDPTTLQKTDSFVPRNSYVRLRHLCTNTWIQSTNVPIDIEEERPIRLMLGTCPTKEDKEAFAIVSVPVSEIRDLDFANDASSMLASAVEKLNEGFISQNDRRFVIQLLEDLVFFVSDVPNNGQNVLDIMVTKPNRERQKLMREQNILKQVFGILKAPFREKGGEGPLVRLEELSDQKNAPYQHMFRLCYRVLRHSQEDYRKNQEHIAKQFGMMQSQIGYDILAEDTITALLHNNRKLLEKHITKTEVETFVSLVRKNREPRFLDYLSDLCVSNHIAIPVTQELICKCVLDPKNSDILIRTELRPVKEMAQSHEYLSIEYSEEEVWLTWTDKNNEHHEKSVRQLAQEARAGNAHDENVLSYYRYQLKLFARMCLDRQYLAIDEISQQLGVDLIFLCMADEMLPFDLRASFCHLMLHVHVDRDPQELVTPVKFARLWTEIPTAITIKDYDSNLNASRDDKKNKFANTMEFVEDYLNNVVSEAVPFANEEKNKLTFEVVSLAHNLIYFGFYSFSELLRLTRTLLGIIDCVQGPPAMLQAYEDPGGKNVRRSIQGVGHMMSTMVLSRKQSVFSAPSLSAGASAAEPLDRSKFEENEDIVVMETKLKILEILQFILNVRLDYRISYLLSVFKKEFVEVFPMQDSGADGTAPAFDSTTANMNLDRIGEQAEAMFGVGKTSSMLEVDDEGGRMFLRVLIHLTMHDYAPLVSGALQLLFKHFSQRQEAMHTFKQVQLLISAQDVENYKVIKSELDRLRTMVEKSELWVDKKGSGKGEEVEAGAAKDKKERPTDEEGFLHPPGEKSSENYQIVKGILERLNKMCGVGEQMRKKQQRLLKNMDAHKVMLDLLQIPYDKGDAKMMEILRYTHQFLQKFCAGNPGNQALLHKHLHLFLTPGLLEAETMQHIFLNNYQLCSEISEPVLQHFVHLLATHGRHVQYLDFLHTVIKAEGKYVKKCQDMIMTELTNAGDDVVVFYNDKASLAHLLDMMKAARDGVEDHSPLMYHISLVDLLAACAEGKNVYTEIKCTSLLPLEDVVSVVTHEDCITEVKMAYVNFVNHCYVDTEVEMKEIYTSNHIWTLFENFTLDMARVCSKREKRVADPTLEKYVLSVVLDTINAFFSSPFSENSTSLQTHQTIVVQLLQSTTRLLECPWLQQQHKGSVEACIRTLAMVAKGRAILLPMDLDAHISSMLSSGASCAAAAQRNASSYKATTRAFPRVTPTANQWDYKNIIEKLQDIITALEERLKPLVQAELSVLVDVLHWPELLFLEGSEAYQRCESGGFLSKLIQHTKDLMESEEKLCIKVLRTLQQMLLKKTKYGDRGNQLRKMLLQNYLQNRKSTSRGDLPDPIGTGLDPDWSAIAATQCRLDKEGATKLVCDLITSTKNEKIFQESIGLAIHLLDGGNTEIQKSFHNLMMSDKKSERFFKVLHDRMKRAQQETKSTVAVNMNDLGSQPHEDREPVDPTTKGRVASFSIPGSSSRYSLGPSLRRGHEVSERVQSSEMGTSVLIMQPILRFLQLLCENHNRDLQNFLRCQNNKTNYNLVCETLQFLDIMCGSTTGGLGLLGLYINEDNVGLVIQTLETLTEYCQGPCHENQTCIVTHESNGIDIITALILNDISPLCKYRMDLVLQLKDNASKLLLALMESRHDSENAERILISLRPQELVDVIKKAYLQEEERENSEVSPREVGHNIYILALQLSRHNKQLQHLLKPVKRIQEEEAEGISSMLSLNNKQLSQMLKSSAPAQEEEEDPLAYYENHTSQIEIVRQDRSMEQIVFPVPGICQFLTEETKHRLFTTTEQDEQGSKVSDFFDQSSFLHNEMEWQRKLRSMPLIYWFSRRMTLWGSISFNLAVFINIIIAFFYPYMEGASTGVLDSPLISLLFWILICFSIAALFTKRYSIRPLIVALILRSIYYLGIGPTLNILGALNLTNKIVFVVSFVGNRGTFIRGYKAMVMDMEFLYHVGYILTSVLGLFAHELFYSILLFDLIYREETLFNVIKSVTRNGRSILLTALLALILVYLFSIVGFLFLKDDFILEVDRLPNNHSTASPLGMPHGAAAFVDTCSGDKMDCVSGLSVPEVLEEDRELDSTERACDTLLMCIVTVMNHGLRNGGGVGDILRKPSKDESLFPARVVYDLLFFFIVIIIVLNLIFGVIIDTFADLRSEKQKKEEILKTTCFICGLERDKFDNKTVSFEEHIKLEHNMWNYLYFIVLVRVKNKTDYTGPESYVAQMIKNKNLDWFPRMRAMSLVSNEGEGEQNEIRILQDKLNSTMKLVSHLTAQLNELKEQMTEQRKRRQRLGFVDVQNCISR
GAPDH-cMyc protein, sequence (P04406 whole entry): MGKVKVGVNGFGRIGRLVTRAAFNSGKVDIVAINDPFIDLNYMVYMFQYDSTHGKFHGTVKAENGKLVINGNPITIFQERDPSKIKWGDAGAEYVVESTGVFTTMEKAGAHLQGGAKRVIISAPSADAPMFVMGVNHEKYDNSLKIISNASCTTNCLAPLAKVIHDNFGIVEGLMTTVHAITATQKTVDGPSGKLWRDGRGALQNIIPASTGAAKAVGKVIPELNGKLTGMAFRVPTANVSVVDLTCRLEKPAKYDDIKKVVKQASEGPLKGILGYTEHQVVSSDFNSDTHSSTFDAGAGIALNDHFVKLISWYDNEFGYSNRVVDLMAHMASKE

| binding result (GAPDH-cMyc protein) | binding result [1] | binding result (Argonuate 2 (Ago2)) | Binder |
| --- | --- | --- | --- |
| no binding |  |  | mitochondrial import receptor subunit TOM20 (other, UniProt Q15388 1-145, looked up) MVGRNSAIAAGVCGALFIGYCIYFDRKRRSDPNFKNRLRERRKKQKLAKERAGLSKLPDLKDAEAVQKFFLEEIQLGEELLAQGEYEKGVDHLTNAIAVCGQPQQLLQVLQQTLPPPVFQMLLTKLPTISQRIVSAQSLAEDDVE |
|  | no binding | no binding | B1 |
